Test results from patent US20210269549A1, “ANTI-SAS1B ANTIBODIES, ASSOCIATED METHODS OF USE, AND COMPOSITIONS AND METHODS FOR DETECTING AND TREATING CANCER” (UNIVERSITY OF VIRGINIA PATENT FOUNDATION, priority 2015, published 2021).
Each block holds one molecule with its values, some of them ahead of it.

What was measured:
[1] = molecular target: T1, mouse SAS1B (Mus musculus, UniProt Q6HA09); test: Western blot of mouse SAS1B probed with anti-human SAS1B murine mAbs; type: binding; conditions: Table 1
T1 sequence (Q6HA09 24-435): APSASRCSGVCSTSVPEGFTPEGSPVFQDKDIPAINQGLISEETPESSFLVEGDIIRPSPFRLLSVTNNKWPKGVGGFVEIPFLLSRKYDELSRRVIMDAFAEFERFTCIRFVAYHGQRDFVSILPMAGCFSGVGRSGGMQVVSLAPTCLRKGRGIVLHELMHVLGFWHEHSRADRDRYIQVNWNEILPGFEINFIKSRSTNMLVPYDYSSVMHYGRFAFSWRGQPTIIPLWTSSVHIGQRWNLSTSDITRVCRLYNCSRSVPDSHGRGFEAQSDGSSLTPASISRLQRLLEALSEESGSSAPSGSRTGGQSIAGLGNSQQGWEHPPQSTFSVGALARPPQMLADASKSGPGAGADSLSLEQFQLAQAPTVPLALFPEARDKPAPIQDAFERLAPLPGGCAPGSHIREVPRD
From the text: A western blot of human SAS1B and mouse SAS1B was probed with anti-human SAS1B murine monoclonal antibodies SB1, SB2, SB3, SB4, SB5, SB6, and SB7.

[2] = test system: SAS1B+ tumor cell lines; test: Confocal immunofluorescence microscopy on live cells (FIG. 25); type: cell-based
From the text: Bioassays to select therapeutic and diagnostic mAbs have focused on two strategies: 1) identification of mAbs reactive with recombinant SAS1B, endogenous SAS1B, and with SAS1B accessible on cell surfaces; and 2) mAbs that recognize epitopes preserved in formalin fixed paraffin embedded sections that work as immuno-cytochemical probes. […] These transfected cells provide one effective screening tool to identify mAbs reactive with native epitopes on SAS1B. Another screening assay is to study SAS1B+ tumor cell lines by immunofluorescence microscopy and FACS. mAbs that recognize SAS1B at the surface of live cells and gate specific cell populations by FACS have been isolated. […] Efforts to identify mAbs that localize SAS1B in fixed embedded sections have also yielded reagents of utility for histopathology. […] Thus the non-human primate ovary can be used as a positive control tissue for studying the histopathology of tumor specimens with these reagents.

[3] = test system: renal carcinoma cells; test: ADC assay on renal carcinoma cells; type: cell-based; conditions: 15 nM Fab-DMDM, 4 days
Experimental: The cytotoxic effect of anti-EGFR (AY13), anti-SAS1B (SB2) and anti-CABYR (3A4) monoclonal antibodies on renal carcinoma cells were tested by ADC assay. An average of 3 experiments in triplicate is reported.

Specifically binds mouse and human SAS1B [1]: Yes
B1: SB1: mouse anti-SAS1B monoclonal antibody, IgG2a; VH SEQ ID NO:12, VL SEQ ID NO:13 (antibody, listed as Mus musculus, V domains shown)
VH: EVQLQQSGPELVKPGSSVKISCKASGYTFTDYNMDWVKQSHGKSLEWIGAINPNNGGTSYNQKFKGKATLTVDKSSSTAYMELRSLTSEDSAVYYCATNEYWGQGTTLTVSS
VL: NIVMTQSPKSMSMSVGERVTLSCKASENVGTYVSWYQQKPEQSPKLLIYGASNRYTGVPDRFTGSGSATDFTLTISSVQAEDLADYHCGQSYSYPWTFGGGTKLEIK

B2: SB2: mouse anti-human SAS1B monoclonal antibody, IgG2b; VH SEQ ID NO:14, VL SEQ ID NO:15 (antibody, listed as Mus musculus, V domains shown)
VH: EVQLQQSGPELVKPGSSVKISCKASGYTFTDYNMVWVKQSHGKSLEWIGAVNPNNGGTSYNQKFKGKATLTVDKSSSTAYMELRSLTSEDSAVYYCVPNWDWFAYWGQGTLVTVSA
VL: DVLMTQTPLSLPVSLGDQASISCRSSQSLVHSNGNTYLEWYLQKPGQSPNLLIYKVSNRFSGVPDRFSGSGSGTDFTLKISRVEAEDLGVYYCFQGSHVPFTFGSGTKLEIK
Binding of SAS1B on live cells [2]: bind SAS1B on live cells | Cytotoxic effect [3]: cytotoxic effect at 0.01, 0.1 nM and higher concentrations
